Laboratory results as given in publication PMC9359175.

How the values were obtained:
[1] = target: 5HB-H2 (SARS-CoV-2 5-helix bundle, optimal construct) (SARS-CoV-2) (UniProt P0DTC2); assay: ITC; […]; 298 K; 20 mM HEPES pH 7.5, 150 mM NaCl; […]
[2] = target: 5HB-H2 (SARS-CoV-2 5-helix bundle, optimal construct) (SARS-CoV-2) (UniProt P0DTC2); assay: BLI; […]; 20 mM HEPES pH 7.5, 150 mM NaCl, 0.05% Tween 20, 298 K; 1:1 model
[3] = target: 5HB-H2 (SARS-CoV-2 5-helix bundle, optimal construct) (SARS-CoV-2) (UniProt P0DTC2); assay: BLI; […]; 20 mM MES pH 5.5, 150 mM NaCl, 0.05% Tween 20, 298 K; 1:1 model
[4] = target: 5HB-H2 (SARS-CoV-2 5-helix bundle, optimal construct) (SARS-CoV-2) (UniProt P0DTC2); assay: BLI; pH 4.5
[5] = target: 5HB-H2 (SARS-CoV-2 5-helix bundle, optimal construct) (SARS-CoV-2) (UniProt P0DTC2); assay: BLI; […]; 20 mM MES pH 6.0, 150 mM NaCl, 0.05% Tween 20, 298 K; 1:1 model
[6] = target: 5HB-H2 (SARS-CoV-2 5-helix bundle, optimal construct) (SARS-CoV-2) (UniProt P0DTC2); assay: crystal structure
[7] = target: 5HB-H2 (SARS-CoV-2 5-helix bundle, optimal construct) (SARS-CoV-2) (UniProt P0DTC2); assay: BLI; pH 5

HR2P, 36-mer peptide derived from SARS-CoV-2 S HR2 (D1168-L1203)
Kd [1]: 5.12 nM
Kd [2]: 4.91 nM
Kd [3]: 3.08 nM
Kd [4]: 1.37 nM
Kd [5]: 3.22 nM
stoichiometry N [6]: 1
Kd [7]: 2.43 nM
